Experimental data taken from publication doi:10.1101/2020.08.17.254268.

Molecular target: CeOSM-3 kinesin-2 motor, SNAP-tagged and labelled (CeOSM-3^SNAP647) (C. elegans) (UniProt P46873)
UniProt P46873, sequence (P46873 whole entry): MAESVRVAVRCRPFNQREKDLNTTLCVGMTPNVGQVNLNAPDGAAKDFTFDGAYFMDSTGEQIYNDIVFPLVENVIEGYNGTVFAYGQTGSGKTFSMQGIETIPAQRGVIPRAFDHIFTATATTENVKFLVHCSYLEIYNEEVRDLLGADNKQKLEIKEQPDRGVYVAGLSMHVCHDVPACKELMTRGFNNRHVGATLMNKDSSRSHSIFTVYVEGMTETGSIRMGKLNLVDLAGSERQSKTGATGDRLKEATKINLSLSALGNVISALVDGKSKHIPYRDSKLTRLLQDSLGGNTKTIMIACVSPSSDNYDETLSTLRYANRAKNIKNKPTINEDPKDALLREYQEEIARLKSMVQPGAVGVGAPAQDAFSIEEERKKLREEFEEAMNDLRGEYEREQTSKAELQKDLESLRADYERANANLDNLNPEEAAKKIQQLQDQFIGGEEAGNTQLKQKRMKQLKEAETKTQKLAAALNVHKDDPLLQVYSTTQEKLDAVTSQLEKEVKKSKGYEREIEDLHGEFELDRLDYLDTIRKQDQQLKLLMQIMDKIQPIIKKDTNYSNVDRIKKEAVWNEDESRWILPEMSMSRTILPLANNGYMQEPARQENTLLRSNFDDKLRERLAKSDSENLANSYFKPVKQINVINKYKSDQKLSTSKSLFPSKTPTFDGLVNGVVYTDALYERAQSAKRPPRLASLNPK

- runlength of CeOSM-3 with MmIFT-52/IFT-70 in the single-molecule transport assay: 3 μm
- velocity of CeOSM-3 with MmIFT-52/IFT-70 in the single-molecule transport assay: 1.72 μm/s
Substance: MmIFT-52^GFP/IFT-70^SNAP647 adaptor (from UniProt Q62559 1-426; Q99J38 1-664) (complex)
